Test results reported in patent US12077599 (SEOUL NATIONAL UNIVERSITY R AND DB FOUNDATION NATIONAL …, dated 2024).
Changes are numbered by the printed parent chain. Names may count otherwise.

B1: alanine-substituted ROS1-hFc fusion protein, Gly42 replaced with alanine (Fc fusion, not shown: a dimerising Fc or GST; small tags and cut ends)
chain: CVTNLAQQLDLGTPHNLSEPCIQGCHFWNSVDQKNCALKCRESCEVGCSSAEGAYEEEVLENADLPTAPFASSIGSHNMTLRWKSANFSGVKYIIQWKYAQLLGSWTYTKTVSRPSYVVKPLHPFTEYIFRVVWIFTAQLQLYSPPSPSYRTHPHGVPETAPLIRNIESSSPDTVEVSWDPPQFPGGPILGYNLRLISKNQKLDAGTQRTSFQFYSTLPNTIYRFSIAAVNEVGEGPEAESSITTSSSAVQQEE
notes: One of the 13 single alanine mutants from Gly42 to Ser54; also called G42A
B2: alanine-substituted ROS1-hFc fusion protein, G48A mutant (Fc fusion, not shown: a dimerising Fc or GST; small tags and cut ends)
chain: B1 chain with A6G, G12A
notes: also called G48A mutant of ROS1 protein
B3: alanine-substituted ROS1-hFc fusion protein, Gln43 replaced with alanine (Fc fusion, not shown: a dimerising Fc or GST; small tags and cut ends)
chain: B1 chain with A6G, Q7A
notes: also called Q43A
B4: alanine-substituted ROS1-hFc fusion protein, L47A mutant (Fc fusion, not shown: a dimerising Fc or GST; small tags and cut ends)
chain: B1 chain with A6G, L11A
notes: also called L47A mutant of ROS1 protein
B5: alanine-substituted ROS1-hFc fusion protein, Asp46 replaced with alanine (Fc fusion, not shown: a dimerising Fc or GST; small tags and cut ends)
chain: B1 chain with A6G, D10A
notes: also called D46A
B6: alanine-substituted ROS1-hFc fusion protein, L45A mutant (Fc fusion, not shown: a dimerising Fc or GST; small tags and cut ends)
chain: B1 chain with A6G, L9A
notes: also called L45A mutant of ROS1 protein
B7: alanine-substituted ROS1-hFc fusion protein, Gln44 replaced with alanine (Fc fusion, not shown: a dimerising Fc or GST; small tags and cut ends)
chain: B1 chain with A6G, Q8A
notes: also called Q44A
B8: 3B20 scFv (phage-displayed clone) (scFv)
scFv: LTQPSSVSANLGGTVKITCSGGSYGYGWYQQKAPGSAPVTVIYDNTNRPSDIPSRFSGSKSGSTGTLTITGVQVEDEAVYYCGSADSSSIATFGAGTTLTVLGQSSRSSGGGGSSGGGGSAVTLDESGGGLQTPGGTLSLVCKASGFSFSDRGMHWMRQAPGKGLEYVGAISGDGYITHYGAAVKGRATISRDNGQSTVRLQLNNLRAEDTATYYCTRGGGGNIDAWGHGTEVIVSSTS
notes: the phage coat fusion is not described
B9: 3B20-G1K scFv (phage-displayed clone) (scFv)
scFv: B8 scFv with V39A, G219K
notes: Clone from the HCDR3 first-residue NNK library in pComb3XSS, tested as phage in ELISA; also called 3B20-GIK
B10: 3B20-G1K scFv-rFc fusion protein (Fc fusion)
scFv: B8 scFv with V39A, G219K
notes: also called 3B20-G1K-rFc; 3B20(scFv)-G1K-rFc fusion protein; not shown: rabbit antibody Fc (rFc)
B11: 3B20 scFv-Cκ fusion protein (scFv)
chain: B8 scFv
notes: Coated on the plate in the alanine scanning ELISA; not shown: human kappa light chain constant region (Cκ)
B12: 3B20 scFv-rFc fusion protein (Fc fusion, rabbit)
chain: B8 scFv
notes: domain: fragment crystallizable region Fc (rFc); scFv fused with rabbit Fc, expressed from modified pCEP4; also called 3B20-rFc; scFv(3B20)-rFc fusion protein; not shown: rabbit antibody fragment crystallizable region Fc (rFc)

Columns and labels:
bovine serum albumin = biological target: T1, bovine serum albumin (bovine, UniProt P02769 25-607); assay: ELISA, BSA coated, ROS1-hFc mutant in solution, HRP anti-hFc
T1 construct: Negative control coating in the alanine scanning ELISA; also called BSA
T1 sequence (P02769 25-607 limits assumed): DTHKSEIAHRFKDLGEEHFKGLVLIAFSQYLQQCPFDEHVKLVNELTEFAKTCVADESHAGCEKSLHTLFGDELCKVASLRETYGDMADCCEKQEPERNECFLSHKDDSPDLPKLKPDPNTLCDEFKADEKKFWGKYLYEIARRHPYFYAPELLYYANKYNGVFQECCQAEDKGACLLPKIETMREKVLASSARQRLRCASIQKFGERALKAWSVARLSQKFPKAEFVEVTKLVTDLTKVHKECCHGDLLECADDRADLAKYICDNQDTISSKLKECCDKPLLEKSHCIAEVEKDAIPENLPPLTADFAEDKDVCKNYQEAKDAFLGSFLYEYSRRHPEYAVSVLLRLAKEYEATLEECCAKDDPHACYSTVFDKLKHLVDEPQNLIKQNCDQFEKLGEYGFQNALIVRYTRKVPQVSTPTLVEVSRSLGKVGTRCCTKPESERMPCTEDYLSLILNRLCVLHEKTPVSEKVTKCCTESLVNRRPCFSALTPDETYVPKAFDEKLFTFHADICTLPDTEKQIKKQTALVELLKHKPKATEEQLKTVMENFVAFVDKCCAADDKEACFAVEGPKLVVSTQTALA
Description: (§1) For alanine scanning mutagenesis of the 3B20 scFv, microtiter plates (Corning Costar) were coated with 100 ng of the 3B20 scFv-Cκ fusion protein, BSA, or the irrelevant scFv-Cκ fusion protein overnight at 4° ° C. After blocking, the plates were incubated with alanine-substituted ROS1-human antibody Fc (hFc) fusion proteins (each amino acid residue from the 42th amino acid residue (Gly) to the 54th amino acid residue (Ser) was replaced with alanine) or a wild type ROS1-hFc fusion protein. The amount of bound fusion protein was determined using an HRP-conjugated rabbit anti-human IgG Fc antibody (Thermo Fisher Scientific, Rockford, IL, USA).
(§2) Example 2. Epitope Mapping of the 3B20 scFv by Alanine Scanning Mutagenesis Assay To further confirm the epitope of the 3B20 scFv, alanine scanning mutagenesis assay was performed using recombinant ROS1 proteins corresponding to amino acids 37-290. First, alanine-substituted ROS1 mutants in which any one of amino acid residues from Gly42 to Ser54 of ROS1 was substituted were prepared. After coating the microtiter plate well with the 3B20 scFv-Cκ fusion protein, BSA or irrelevant scFv-Cκ fusion protein, the plate was incubated with the alanine-substituted ROS1-hFc fusion protein or wild-type ROS1-hFc fusion protein. The amount of the ROS1-hFc fusion protein combined to the plate was measured using the HRP-conjugated anti-hFc antibody and ATBS solution. The obtained result was shown in FIG. 2a (3B20 scFv-Cκ fusion protein coating), 2b (BSA coating) and 2c (irrelevant scFv-Cκ fusion protein coating).

[1] = biological target: T2, ROS1 synthetic peptide (amino acids 39-56 of ROS1 combined to GGGC) conjugated to BSA (human, not fully specified; conjugated to bovine serum albumin (BSA) or ovalbumin (OVA)); assay: phage ELISA after five rounds of biopanning on the peptide conjugate
T2 peptide: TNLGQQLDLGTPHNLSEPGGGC
From the text: Three White Leghorn chickens were immunized and boosted three times with the synthetic peptide ([…] […] (SEQ ID NO: 16); fusion polypeptide in which the 39th to 56th amino acid regions of ROS1 (GenBank Accession No. NP_002935.2) combined to "GGGC") conjugated to keyhole limpet hemocyanin (Peptron; Daejun, S. Korea). A phage display of a chicken single-chain variable fragment (scFv) antibody library was constructed [See C. F. Barbas, Phage Display: a Laboratory Manual, Cold Spring Harbor Laboratory Press, Cold Spring Harbor, N Y, 2001]. After five rounds of biopanning on the ROS1 synthetic peptide ([…]-[…]) conjugated to either bovine serum albumin (BSA) or ovalbumin (OVA), the single-chain variable fragment (scFv)-displaying phages were subjected to enzyme-linked immunosorbent assay (ELISA) [See C. F. Barbas, Phage Display: a Laboratory Manual, Cold Spring Harbor Laboratory Press, Cold Spring Harbor, N Y, 2001; S. Park, D. H. Lee, J. G. Park, Y. T. Lee, J. Chung, A sensitive enzyme immunoassay for measuring cotinine in passive smokers, Clin. Chim. Acta 411 (2010) 1238-1242].

[2] = biological target: T3, GRP75 (Enzo Life Sciences) (UniProt P38646 47-679, limits assumed); assay: phage ELISA
T3 construct: Purchased protein coated in ELISA
T3 sequence (P38646 47-679 limits assumed): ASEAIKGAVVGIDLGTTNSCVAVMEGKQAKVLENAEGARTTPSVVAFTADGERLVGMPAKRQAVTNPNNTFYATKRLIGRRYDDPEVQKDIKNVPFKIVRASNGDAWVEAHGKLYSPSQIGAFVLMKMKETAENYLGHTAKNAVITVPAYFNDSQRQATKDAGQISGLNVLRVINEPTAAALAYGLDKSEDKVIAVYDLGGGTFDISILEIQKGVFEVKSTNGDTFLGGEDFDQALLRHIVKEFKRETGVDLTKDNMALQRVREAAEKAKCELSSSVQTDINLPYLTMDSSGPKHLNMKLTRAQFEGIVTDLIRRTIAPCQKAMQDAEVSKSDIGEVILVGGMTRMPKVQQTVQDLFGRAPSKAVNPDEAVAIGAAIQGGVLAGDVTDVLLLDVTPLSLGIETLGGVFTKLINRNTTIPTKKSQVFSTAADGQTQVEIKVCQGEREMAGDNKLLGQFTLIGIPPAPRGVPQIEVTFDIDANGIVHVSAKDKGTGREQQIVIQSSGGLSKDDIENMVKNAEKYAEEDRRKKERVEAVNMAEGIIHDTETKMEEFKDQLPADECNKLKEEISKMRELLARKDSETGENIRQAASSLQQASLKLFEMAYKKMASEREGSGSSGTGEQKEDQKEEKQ
Description: Each codon in the bracket in the forward primer sequence of the second fragment was replaced with NNK. Subsequently, these PCR fragments were purified and subjected to overlap extension PCR. The overlap extension PCR was performed using 100 ng PCR fragments each by after preparatory modification of DNA at 95° C. for 5 minutes, 30 cycles of DNA modification at 95° C. for 30 seconds, combination of primers at 56° C. for 30 seconds, and elongation at 72° C. for 30 seconds, and then it was terminated after incubation for 5 minutes. The obtained overlap extension PCR products were purified and subcloned into a pComb3XSS phagemid vector using Sfi I restriction enzyme and transformed into *Escherichia coli* [See C. F. Barbas, Phage Display: a Laboratory Manual, Cold Spring Harbor Laboratory Press, Cold Spring Harbor, N Y, 2001]. From the output titer plate, phages were rescued from randomly selected colonies and subjected to ELISA [See C. F. Barbas, Phage Display: a Laboratory Manual, Cold Spring Harbor Laboratory Press, Cold Spring Harbor, N Y, 2001].
Example 3. Screening of Modified scFv with Enhanced Specificity from the HCDR3 Site-Directed Mutagenesis Library Based on the result of Example 2, to generate monoclonal antibody clones nonreactive to Hsp70 but reactive to ROS1, HCDR3 site-directed mutagenesis libraries were constructed. […]

[3] = biological target: T3, GRP75 (Enzo Life Sciences); assay: ELISA, GRP75 coated, detection with HRP anti-rabbit IgG
Description: Microtiter plates (Costar, Cambridge, MA, USA) were coated with 100 ng of a recombinant ROS1 (37-290 amino acids)-Cκ fusion protein, an irrelevant protein (recombinant PSA (prostate cancer specific antigen; NP_001025218.1))-Cκ fusion protein the synthetic peptide ([…]-[…])-BSA conjugate or GRP75 (Enzo Life Sciences, Farmingdale, NY, USA) dissolved in coating buffer (0.1 M sodium bicarbonate, pH 8.6). After blocking, 3B20-rFc or 3B20-G1K (the first amino acid G of HCDR3 of 3B20 was substituted to K)-rFc fusion proteins were added. The amounts of bound antibodies were determined using a horseradish peroxidase (HRP)-conjugated goat anti-rabbit IgG antibody (Abcam, Cambridge Science Park, Cambridge, UK) and 2,20-azinobis [3-ethylbenzothiazoline-6-sulfonic acid]-diammonium salt (ABTS) substrate solution (Amresco LLC, Solon, OH, USA). All experiments were performed in triplicate.
To test the specificity of 3B20-GlK, a recombinant 3B20-G1K scFv-Cκ fusion protein was prepared. Then ELISA, immunoblot, and immunoprecipitation analyses were performed in parallel with 3B20 for the prepared fusion protein. […] After blocking, the 3B20-rFc fusion protein or 3B20-G1K-rFc fusion protein was added to the well in a concentration of 0 to 2000 ng/ml, and the amount of the fusion protein combined to the well was measured by ELISA using the HRP-conjugated anti-rabbit IgG antibody and ABTS solution. […]

[4] = biological target: B5; assay: alanine scanning ELISA, 3B20 scFv-Cκ coated, ROS1-hFc mutant in solution, HRP anti-hFc
Description: as §1, §2

[5] = biological target: B3; assay: as above
Description: as §1, §2

[6] = biological target: B1; assay: as above
Description: as §1, §2

[7] = biological target: B7; assay: as above
Description: as §1, §2

[8] = biological target: T4, Heat shock 70 kDa protein 1A/1B, from HEK293T cell lysate (human, UniProt P0DMV8 2-641); assay: immunoprecipitation with 3B20 scFv-rFc from HEK293T lysates, LC-MS of the 70 kDa band
T4 construct: Identified by LC-MS/MS against the IPI human database; also called Hsp70; HSP70
T4 sequence (P0DMV8 2-641 limits assumed): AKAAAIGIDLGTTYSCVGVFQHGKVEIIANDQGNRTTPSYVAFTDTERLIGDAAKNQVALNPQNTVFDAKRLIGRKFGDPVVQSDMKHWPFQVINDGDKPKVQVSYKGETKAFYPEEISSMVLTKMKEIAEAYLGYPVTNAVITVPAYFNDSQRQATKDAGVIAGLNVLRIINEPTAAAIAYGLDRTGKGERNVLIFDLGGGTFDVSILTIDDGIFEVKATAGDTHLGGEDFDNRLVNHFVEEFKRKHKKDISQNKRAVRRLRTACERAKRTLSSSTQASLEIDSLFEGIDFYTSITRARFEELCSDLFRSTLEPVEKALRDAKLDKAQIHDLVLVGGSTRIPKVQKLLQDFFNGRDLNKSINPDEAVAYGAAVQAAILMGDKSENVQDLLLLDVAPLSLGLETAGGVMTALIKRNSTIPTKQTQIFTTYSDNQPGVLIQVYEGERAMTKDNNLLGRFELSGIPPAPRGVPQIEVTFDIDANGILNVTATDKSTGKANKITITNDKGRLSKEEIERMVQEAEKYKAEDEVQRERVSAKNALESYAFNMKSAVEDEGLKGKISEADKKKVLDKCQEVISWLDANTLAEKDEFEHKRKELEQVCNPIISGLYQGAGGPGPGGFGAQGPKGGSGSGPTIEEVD
Description: (§3) HEK293T cell lines overexpressing either ROS1 or GFP were lysed in cold lysis buffer [1% Triton X-100, 150 mM NaCl, 50 mM Tris (pH 8.0)] containing 1 mM phenylmethane sulfonyl fluoride (Merck KGaA, Darmstadt, Germany) a protease inhibitor cocktail (Roche), and a phosphatase inhibitor cocktail (Roche). Lysates were incubated with 3B20 scFv or 3B20 scFv-G1K fused to the rFc fusion protein (5 μg/mL) and protein A-conjugated agarose beads (RepliGen, Waltham, MA, USA). After washing, proteins bound to beads were eluted by boiling in NuPAGE LDS Sample Buffer (Thermo Fisher Scientific) and subjected to SDS-PAGE and immunoblotting (See Reference example 4). The eluted proteins separated by SDS-PAGE were visualized using Coomassie Brilliant Blue R250 (Merck). […]
(§4) To investigate the proteins reactive to 3B20 scFv, immunoprecipitation was performed using a 3B20 scFv-rFc fusion protein from HEK293T cells transfected with lentiviral vector encoding human ROS1 (full-length) or GFP (control). […] Bands corresponding to 70 kDa and 260 kDa were excised from the gel and analyzed by liquid chromatography/MS. The obtained result was shown in FIG. 1c, and the list of proteins analyzed in (A) and (B) bands represented by arrows in FIG. 1c was shown in the following Table 2. As expected, ROS1 (accession number: IPI0028965; SEQ ID NO: 9) was detected in a band of 260 kDa.

[9] = biological target: T5, Stress-70 protein, mitochondrial (GRP75), from HEK293T cell lysate (human, UniProt P38646 47-679); assay: as above
T5 construct: Identified by LC-MS/MS against the IPI human database; also called IPI00007765 (+1)
T5 sequence (P38646 47-679 limits assumed): as the sequence (P38646 47-679 limits assumed) above
Description: as §3, §4

B1
binding result (bovine serum albumin): no binding

B2
binding result (bovine serum albumin): no binding

B3
binding result (bovine serum albumin): no binding

B4
binding result (bovine serum albumin): no binding

B5
binding result (bovine serum albumin): no binding

B6
binding result (bovine serum albumin): no binding

B7
binding result (bovine serum albumin): no binding

B8
binding result [1]: binds

B9
binding result [2]: no binding

B10
binding result [3]: no binding (tested: 2 µg/mL)

B11
binding result [4]: binds | binding result [5]: binds | binding result [6]: binds | binding result [7]: binds

B12
binding result [8]: binds | binding result [9]: binds
